# Assay results as given in PMC8927117, “Structural Insight into the MCM double hexamer activation by Dbf4-Cdc7 kinase” (Nature Communications, 2022).
# Several values for one entry are separate records, joined by “and”; a condition that tells them apart may be missing. Identical values can stand only once.
# B1: Dbf4 (subunit of the full-length DDK) (natural protein, budding yeast, UniProt P32325 1-704, looked up)
# chain: MVSPTKMIIRSPLKETDTNLKHNNGIAASTTAAGHLNVFSNDNNCNNNNTTESFPKKRSLERLELQQQQHLHEKKRARIERARSIEGAVQVSKGTGLKNVEPRVTPKELLEWQTNWKKIMKRDSRIYFDITDDVEMNTYNKSKMDKRRDLLKRGFLTLGAQITQFFDTTVTIVITRRSVENIYLLKDTDILSRAKKNYMKVWSYEKAARFLKNLDVDLDHLSKTKSASLAAPTLSNLLHNEKLYGPTDRDPRTKRDDIHYFKYPHVYLYDLWQTWAPIITLEWKPQELTNLDELPYPILKIGSFGRCPFIGDRNYDESSYKRVVKRYSRDKANKKYALQLRALFQYHADTLLNTSSVNDQTKNLIFIPHTCNDSTKSFKKWMQEKAKNFEKTELKKTDDSAVQDVRNEHADQTDEKNSILLNETETKEPPLKEEKENKQSIAEESNKYPQRKELAATPKLNHPVLATFARQETEEVPDDLCTLKTKSRQAFEIKASGAHQSNDVATSFGNGLGPTRASVMSKNMKSLSRLMVDRKLGVKQTNGNNKNYTATIATTAETSKENRHRLDFNALKKDEAPSKETGKDSAVHLETNRKPQNFPKVATKSVSADSKVHNDIKITTTESPTASKKSTSTNVTLHFNAQTAQTAQPVKKETVKNSGYCENCRVKYESLEQHIVSEKHLSFAENDLNFEAIDSLIENLRFQI
# notes: Dbf4, budding yeast, 704 residues; Stood in the assay as part of the DDK heterodimer
# B2: Dbf4-dependent kinase Cdc7 (DDK), full-length Cdc7-Dbf4 heterodimer (complex, budding yeast)
# chain 1: B1 chain
# chain 2: MTSKTKNIDDIPPEIKEEMIQLYHDLPGIENEYKLIDKIGEGTFSSVYKAKDITGKITKKFASHFWNYGSNYVALKKIYVTSSPQRIYNELNLLYIMTGSSRVAPLCDAKRVRDQVIAVLPYYPHEEFRTFYRDLPIKGIKKYIWELLRALKFVHSKGIIHRDIKPTNFLFNLELGRGVLVDFGLAEAQMDYKSMISSQNDYDNYANTNHDGGYSMRNHEQFCPCIMRNQYSPNSHNQTPPMVTIQNGKVVHLNNVNGVDLTKGYPKNETRRIKRANRAGTRGFRAPEVLMKCGAQSTKIDIWSVGVILLSLLGRRFPMFQSLDDADSLLELCTIFGWKELRKCAALHGLGFEASGLIWDKPNGYSNGLKEFVYDLLNKECTIGTFPEYSVAFETFGFLQQELHDRMSIEPQLPDPKTNMDAVDAYELKKYQEEIWSDHYWCFQVLEQCFEMDPQKRSSAEDLLKTPFFNELNENTYLLDGESTDEDDVVSSSEADLLDKDVLLISE
# notes: Dbf4, budding yeast, 704 residues; Cdc7, budding yeast; Treated with lambda phosphatase during purification; also called Dbf4-Cdc7 kinase complex; WT DDK
# B3: Cdc7 (subunit of the full-length DDK) (enzyme, budding yeast, UniProt P06243 1-507, looked up)
# chain: B2 chain 2
# notes: Cdc7, budding yeast; Stood in the assay as part of the DDK heterodimer; also called kinase core
# Legend:
# Assay in all cases: cryo-EM structure; DDK-DH mixture (ATP-γ-S) mildly crosslinked by Grafix: 20-40% glycerol gradient with 0-0.025% glutaraldehyde, 150 mM KOAc, pH 7.6, 4 °C; States I-IV and Groups I-VI by focused 3D classification
# Conditions in all cases: both partners purified
# [1] = target: T1, Mcm4 (subunit of the MCM double hexamer) (budding yeast (endogenous in W303), UniProt P30665 1-933)
# T1 construct: Mcm4, budding yeast, endogenous protein from its genomic locus; Stood in the assay as a subunit of the DH; source: endogenous, G1 chromatin of budding yeast (W303), purified as part of the DH
# T1 sequence (looked up): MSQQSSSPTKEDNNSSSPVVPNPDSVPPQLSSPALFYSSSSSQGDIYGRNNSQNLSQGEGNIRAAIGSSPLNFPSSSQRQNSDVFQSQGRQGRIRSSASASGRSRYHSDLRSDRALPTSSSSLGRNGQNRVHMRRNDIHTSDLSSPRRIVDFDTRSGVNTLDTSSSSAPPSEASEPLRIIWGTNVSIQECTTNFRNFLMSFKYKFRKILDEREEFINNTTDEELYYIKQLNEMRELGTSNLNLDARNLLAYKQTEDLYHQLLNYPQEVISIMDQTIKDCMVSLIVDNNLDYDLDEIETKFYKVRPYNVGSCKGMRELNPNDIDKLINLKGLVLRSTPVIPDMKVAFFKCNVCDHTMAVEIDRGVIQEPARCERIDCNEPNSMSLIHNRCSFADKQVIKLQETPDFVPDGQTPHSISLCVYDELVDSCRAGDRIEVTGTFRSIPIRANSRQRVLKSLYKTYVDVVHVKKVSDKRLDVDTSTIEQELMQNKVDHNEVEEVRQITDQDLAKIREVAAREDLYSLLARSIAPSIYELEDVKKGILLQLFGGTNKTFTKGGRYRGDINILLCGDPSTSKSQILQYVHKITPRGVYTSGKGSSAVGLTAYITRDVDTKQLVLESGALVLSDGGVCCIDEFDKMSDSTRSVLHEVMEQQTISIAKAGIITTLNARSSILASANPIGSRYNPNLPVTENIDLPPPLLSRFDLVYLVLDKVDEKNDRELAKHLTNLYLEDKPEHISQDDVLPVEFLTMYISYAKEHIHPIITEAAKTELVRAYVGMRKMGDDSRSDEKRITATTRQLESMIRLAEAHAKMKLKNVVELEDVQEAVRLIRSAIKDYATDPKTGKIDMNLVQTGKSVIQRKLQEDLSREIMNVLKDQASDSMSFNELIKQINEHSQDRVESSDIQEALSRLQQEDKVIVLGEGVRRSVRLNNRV
# [2] = target: T2, Mcm6 (subunit of the MCM double hexamer) (budding yeast (endogenous in W303), UniProt P53091 1-1017)
# T2 construct: Mcm6, budding yeast, endogenous protein from its genomic locus; Stood in the assay as a subunit of the DH; source: endogenous, G1 chromatin of budding yeast (W303), purified as part of the DH
# [3] = target: T3, Mcm2 (subunit of the MCM double hexamer) (budding yeast (endogenous in W303), UniProt P29469 1-868)
# T3 construct: Mcm2, budding yeast, endogenous protein from its genomic locus; Stood in the assay as a subunit of the DH; source: endogenous, G1 chromatin of budding yeast (W303), purified as part of the DH
# T3 sequence (looked up): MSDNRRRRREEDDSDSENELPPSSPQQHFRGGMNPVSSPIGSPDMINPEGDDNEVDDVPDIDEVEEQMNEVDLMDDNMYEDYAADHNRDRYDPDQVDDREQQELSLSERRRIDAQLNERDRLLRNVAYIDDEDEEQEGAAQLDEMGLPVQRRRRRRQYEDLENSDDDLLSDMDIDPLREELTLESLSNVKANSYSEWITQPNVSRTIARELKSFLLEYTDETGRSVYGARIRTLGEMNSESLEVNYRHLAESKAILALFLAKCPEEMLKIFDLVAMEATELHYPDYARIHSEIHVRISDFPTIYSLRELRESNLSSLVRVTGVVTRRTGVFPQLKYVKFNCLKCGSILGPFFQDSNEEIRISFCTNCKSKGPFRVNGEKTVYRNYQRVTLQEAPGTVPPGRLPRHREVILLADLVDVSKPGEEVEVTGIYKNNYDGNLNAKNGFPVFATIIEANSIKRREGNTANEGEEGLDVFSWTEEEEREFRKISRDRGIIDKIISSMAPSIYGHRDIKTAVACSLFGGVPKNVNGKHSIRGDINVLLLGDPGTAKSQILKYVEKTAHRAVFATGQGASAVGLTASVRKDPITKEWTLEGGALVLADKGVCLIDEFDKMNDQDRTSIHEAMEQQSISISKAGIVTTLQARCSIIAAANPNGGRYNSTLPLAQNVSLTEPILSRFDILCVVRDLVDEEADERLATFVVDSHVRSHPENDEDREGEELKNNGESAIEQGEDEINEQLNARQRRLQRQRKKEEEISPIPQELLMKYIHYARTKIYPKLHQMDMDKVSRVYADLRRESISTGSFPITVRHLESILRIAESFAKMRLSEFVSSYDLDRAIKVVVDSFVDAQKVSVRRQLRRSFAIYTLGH
# [4] = target: T4, MCM double hexamer (Mcm2-7 double hexamer), endogenous, wild type (budding yeast (endogenous in W303), UniProt P29469 1-868; P24279 1-971; P30665 1-933; P29496 1-775; P53091 1-1017; P38132 …)
# T4 construct: Mcm2, budding yeast, endogenous protein from its genomic locus; Mcm3, budding yeast, endogenous protein from its genomic locus; Mcm4, budding yeast, endogenous protein from its genomic locus; Mcm5, budding yeast, endogenous protein from its genomic locus; Mcm6, budding yeast, endogenous protein from its genomic locus; Mcm7, budding yeast, endogenous protein from its genomic locus; Either …
# [5] = target: B1
# T4 sequence (P24279 whole entry, chain 2 of 4): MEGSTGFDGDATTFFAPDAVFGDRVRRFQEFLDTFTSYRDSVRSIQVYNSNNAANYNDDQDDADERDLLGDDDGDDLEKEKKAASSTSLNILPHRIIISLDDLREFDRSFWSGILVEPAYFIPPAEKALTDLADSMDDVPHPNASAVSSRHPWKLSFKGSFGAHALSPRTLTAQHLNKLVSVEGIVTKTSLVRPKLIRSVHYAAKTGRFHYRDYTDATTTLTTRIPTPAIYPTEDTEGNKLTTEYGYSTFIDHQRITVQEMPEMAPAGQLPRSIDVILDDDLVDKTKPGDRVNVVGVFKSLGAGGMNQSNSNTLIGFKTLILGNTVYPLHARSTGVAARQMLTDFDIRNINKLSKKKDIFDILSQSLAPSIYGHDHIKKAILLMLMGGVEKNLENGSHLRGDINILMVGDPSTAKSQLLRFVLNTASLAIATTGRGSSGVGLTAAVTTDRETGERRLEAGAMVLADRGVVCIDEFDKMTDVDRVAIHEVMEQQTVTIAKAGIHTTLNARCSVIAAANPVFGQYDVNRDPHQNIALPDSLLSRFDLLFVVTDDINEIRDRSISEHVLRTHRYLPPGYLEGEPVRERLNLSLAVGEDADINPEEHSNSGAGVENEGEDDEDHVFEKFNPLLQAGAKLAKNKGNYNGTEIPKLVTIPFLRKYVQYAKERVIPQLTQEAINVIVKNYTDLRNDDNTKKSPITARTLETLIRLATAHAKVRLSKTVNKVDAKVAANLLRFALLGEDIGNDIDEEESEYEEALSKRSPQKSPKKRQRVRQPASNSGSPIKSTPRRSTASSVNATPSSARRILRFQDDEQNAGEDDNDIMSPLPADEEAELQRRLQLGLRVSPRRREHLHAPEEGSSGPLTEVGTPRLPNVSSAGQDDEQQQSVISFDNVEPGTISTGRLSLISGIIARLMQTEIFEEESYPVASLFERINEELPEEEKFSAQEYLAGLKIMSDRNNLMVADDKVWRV
# T4 sequence (P29496 whole entry, chain 4 of 4): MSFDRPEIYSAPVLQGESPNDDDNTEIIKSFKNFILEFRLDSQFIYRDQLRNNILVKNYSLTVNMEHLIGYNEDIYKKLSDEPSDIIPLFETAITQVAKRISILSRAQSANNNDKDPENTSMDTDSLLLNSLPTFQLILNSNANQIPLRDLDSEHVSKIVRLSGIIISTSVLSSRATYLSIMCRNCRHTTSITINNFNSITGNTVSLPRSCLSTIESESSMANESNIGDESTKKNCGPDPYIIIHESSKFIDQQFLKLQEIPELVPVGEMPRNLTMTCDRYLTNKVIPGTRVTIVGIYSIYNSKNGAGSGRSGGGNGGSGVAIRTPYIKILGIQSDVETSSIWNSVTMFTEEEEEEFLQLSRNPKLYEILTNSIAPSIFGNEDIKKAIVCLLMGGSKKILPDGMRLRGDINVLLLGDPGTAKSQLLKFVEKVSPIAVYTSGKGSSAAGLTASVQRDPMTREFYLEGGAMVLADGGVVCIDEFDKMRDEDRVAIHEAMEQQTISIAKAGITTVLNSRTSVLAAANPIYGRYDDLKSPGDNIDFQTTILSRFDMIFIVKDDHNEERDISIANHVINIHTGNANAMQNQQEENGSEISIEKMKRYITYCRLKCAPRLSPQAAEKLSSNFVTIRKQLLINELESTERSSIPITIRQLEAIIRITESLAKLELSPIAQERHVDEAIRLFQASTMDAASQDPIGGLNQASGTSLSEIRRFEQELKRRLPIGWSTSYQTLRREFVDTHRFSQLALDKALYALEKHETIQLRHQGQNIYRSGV
# T4 sequence (P53091 whole entry, chain 5 of 4): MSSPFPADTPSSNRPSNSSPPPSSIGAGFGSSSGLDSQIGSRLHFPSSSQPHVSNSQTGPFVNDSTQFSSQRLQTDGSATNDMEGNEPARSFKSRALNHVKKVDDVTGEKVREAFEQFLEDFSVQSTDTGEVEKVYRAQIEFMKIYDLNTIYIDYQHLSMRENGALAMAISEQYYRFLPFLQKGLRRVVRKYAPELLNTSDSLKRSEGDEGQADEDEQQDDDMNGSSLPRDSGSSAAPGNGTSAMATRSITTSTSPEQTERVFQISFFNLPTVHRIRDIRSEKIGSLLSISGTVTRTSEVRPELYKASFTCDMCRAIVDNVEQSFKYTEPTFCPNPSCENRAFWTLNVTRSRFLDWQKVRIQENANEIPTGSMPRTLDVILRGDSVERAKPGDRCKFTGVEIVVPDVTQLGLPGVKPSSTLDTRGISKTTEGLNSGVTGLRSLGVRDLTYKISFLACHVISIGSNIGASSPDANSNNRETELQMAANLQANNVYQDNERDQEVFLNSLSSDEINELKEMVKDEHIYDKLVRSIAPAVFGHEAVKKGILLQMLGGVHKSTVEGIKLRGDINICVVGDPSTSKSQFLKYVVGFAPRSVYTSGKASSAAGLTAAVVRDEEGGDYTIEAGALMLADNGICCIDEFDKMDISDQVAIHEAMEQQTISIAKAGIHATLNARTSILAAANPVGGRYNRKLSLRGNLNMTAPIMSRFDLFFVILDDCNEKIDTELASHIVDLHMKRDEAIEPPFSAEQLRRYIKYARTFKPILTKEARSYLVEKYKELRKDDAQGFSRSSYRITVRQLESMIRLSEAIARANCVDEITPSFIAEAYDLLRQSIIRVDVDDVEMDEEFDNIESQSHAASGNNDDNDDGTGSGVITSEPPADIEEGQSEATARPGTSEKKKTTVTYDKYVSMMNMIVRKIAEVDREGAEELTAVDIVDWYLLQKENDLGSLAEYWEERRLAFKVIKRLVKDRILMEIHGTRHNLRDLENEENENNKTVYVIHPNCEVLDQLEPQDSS
# T4 sequence (P38132 whole entry, chain 6 of 4): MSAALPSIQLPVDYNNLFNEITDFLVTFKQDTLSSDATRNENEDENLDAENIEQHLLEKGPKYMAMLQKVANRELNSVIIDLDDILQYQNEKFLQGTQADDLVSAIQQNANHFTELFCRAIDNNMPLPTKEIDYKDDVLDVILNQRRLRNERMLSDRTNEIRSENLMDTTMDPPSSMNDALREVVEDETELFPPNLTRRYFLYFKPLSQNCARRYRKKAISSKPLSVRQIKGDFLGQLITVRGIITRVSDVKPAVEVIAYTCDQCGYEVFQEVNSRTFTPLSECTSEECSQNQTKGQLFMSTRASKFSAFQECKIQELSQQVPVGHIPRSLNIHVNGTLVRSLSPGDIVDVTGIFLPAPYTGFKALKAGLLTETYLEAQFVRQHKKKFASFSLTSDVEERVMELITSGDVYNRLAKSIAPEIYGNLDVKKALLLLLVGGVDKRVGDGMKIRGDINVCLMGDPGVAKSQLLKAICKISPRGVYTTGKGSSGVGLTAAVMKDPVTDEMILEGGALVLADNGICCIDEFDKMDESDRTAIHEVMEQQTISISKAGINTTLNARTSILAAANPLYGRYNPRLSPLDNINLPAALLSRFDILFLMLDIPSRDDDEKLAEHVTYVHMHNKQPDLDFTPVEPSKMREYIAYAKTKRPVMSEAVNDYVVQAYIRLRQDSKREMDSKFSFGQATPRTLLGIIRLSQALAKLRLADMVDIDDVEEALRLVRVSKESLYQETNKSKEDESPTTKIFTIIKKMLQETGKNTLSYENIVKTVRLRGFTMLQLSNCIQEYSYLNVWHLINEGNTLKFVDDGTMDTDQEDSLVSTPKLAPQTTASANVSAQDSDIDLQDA
# T2 sequence (P53091 whole entry): as the sequence (P53091 whole entry, chain 5 of 4) above
binder,measurement,setting,value
B1,binding result,[1],binds
same,binding result,[2],binds
same,binding result,[3],binds
B2,stoichiometry N,[4],2 DDK per DH and 1 DDK per DH
B3,binding result,[5],binds
